{"source": "patent US20230279079A1", "about": "(published 2023)", "binders": {"B1": {"name": "FI-3A (antibody, V domains shown)", "VH": "EVQLLESGGGLIQPGGSLRLSCAASGFTVSSNYMSWVRQAPGKGLEWVSVIYSGGSTYYADSVKGRFTISRDNSKNTLYLQMNSLRAEDTAVYYCARDHVRPGMNIWGQGTMVTVSS", "VL": "not shown"}}, "target": "RBD-VLP (SARS-CoV-2, UniProt P0DTC2 340-538)", "data": [{"binder": "B1", "values": [{"measurement": "IC50", "value": 3, "unit": "nM"}]}]}
